The source of these data is the supplement of paper PMC9112550, “Optimization of the antimicrobial peptide Bac7 by deep mutational scanning” (BMC Biology, 2022).

The series relates to Escherichia coli TOP10. The experiment in a line: shrunken log2 fold change of peptide-encoding DNA abundance (4.5 h post-induction vs induction); higher = less antimicrobial activity (less host growth inhibition). Conditions: time post-induction: 4.5 h; library: site-saturation at positions 5, 18, 19, 20.
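Further: peptides expressed intracellularly from a pBAD plasmid library in pooled LB shake-flask culture, induced with 0.3% L-arabinose, DNA abundance read by NGS, three biological replicates, DESeq2 with apeglm shrinkage.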

Regarding RRIRRRPPRLPRPRPRPEKNPRP, the “shrunken log2 fold change” value was 0.289.

Turning to RRIRERPPRLPRPRPRPSEHPRP, the “shrunken log2 fold change” value was -0.0752.

Consider RRIRIRPPRLPRPRPRPIAFPRP, for which the “shrunken log2 fold change” value is -0.0789.

As to RRIRSRPPRLPRPRPRPQAEPRP, the “shrunken log2 fold change” value was -0.0131.

Consider RRIRMRPPRLPRPRPRPAREPRP, for which the “shrunken log2 fold change” value was found to be 1.86.

In the case of RRIRMRPPRLPRPRPRPSLHPRP, the “shrunken log2 fold change” value was -0.222.

Take RRIRRRPPRLPRPRPRPKLHPRP: the “shrunken log2 fold change” value was 0.167.

As for RRIRHRPPRLPRPRPRPQVTPRP, the “shrunken log2 fold change” value was -0.0667.

Regarding RRIRFRPPRLPRPRPRPEYAPRP, the “shrunken log2 fold change” value is -0.14.

RRIRHRPPRLPRPRPRPVCKPRP: the “shrunken log2 fold change” value was -0.14.

In the case of RRIRYRPPRLPRPRPRPPLHPRP, the “shrunken log2 fold change” value is -0.455.

Regarding RRIRWRPPRLPRPRPRPPIDPRP, the “shrunken log2 fold change” value turned out to be 0.1.

With RRIRVRPPRLPRPRPRPMHVPRP, the “shrunken log2 fold change” value came out at 0.0592.

As to RRIRERPPRLPRPRPRPGDLPRP, the “shrunken log2 fold change” value is -0.0898.

As for RRIRSRPPRLPRPRPRPFHSPRP, the “shrunken log2 fold change” value was -0.0807.

With RRIRCRPPRLPRPRPRPGNIPRP, the “shrunken log2 fold change” value is -0.198.

For RRIRYRPPRLPRPRPRPTVAPRP, the “shrunken log2 fold change” value was found to be 0.0691.

As for RRIRCRPPRLPRPRPRPMNVPRP, the “shrunken log2 fold change” value is -0.00117.

With RRIRVRPPRLPRPRPRPEHYPRP, the “shrunken log2 fold change” value is 0.0358.

For RRIRHRPPRLPRPRPRPPCYPRP, the “shrunken log2 fold change” value is -0.131.

Consider RRIRNRPPRLPRPRPRPMCVPRP, for which the “shrunken log2 fold change” value was -0.166.

Regarding RRIRLRPPRLPRPRPRPRSVPRP, the “shrunken log2 fold change” value is -0.0722.

In the case of RRIRHRPPRLPRPRPRPNQHPRP, the “shrunken log2 fold change” value was -0.922.

Take RRIRGRPPRLPRPRPRPQNSPRP: the “shrunken log2 fold change” value is -0.506.

On to RRIRCRPPRLPRPRPRPIVEPRP, for which the “shrunken log2 fold change” value was -0.151.

Consider RRIRWRPPRLPRPRPRPNNVPRP, for which the “shrunken log2 fold change” value was -0.207.

Turning to RRIRCRPPRLPRPRPRPTCNPRP, the “shrunken log2 fold change” value is -0.265.

RRIRQRPPRLPRPRPRPNRHPRP: the “shrunken log2 fold change” value amounted to 0.115.

As to RRIRKRPPRLPRPRPRPSMWPRP, the “shrunken log2 fold change” value stood at 1.63.

For RRIRYRPPRLPRPRPRPEIAPRP, the “shrunken log2 fold change” value is -0.185.

Turning to RRIRQRPPRLPRPRPRPSSVPRP, the “shrunken log2 fold change” value came out at 0.00784.

With RRIRERPPRLPRPRPRPICRPRP, the “shrunken log2 fold change” value was determined as 0.0559.

As for RRIRSRPPRLPRPRPRPTYWPRP, the “shrunken log2 fold change” value is -0.123.

Take RRIRIRPPRLPRPRPRPLKFPRP: the “shrunken log2 fold change” value was -0.373.

RRIRYRPPRLPRPRPRPAPHPRP: the “shrunken log2 fold change” value was -0.247.

Regarding RRIRWRPPRLPRPRPRPYLWPRP, the “shrunken log2 fold change” value was -0.153.

With RRIRVRPPRLPRPRPRPAAQPRP, the “shrunken log2 fold change” value amounted to 0.433.

For the sequence RRIRSRPPRLPRPRPRPQLRPRP, the “shrunken log2 fold change” value is 0.123.

Regarding RRIRQRPPRLPRPRPRPCSGPRP, the “shrunken log2 fold change” value is -0.0532.

On to RRIRPRPPRLPRPRPRPSIVPRP, for which the “shrunken log2 fold change” value was -0.662.

RRIRSRPPRLPRPRPRPEEGPRP: the “shrunken log2 fold change” value was determined as 0.0515.

Regarding RRIRFRPPRLPRPRPRPWRDPRP, the “shrunken log2 fold change” value is -0.136.

Turning to RRIRDRPPRLPRPRPRPALRPRP, the “shrunken log2 fold change” value was found to be 0.0869.

For the sequence RRIRWRPPRLPRPRPRPSGFPRP, the “shrunken log2 fold change” value was determined as 0.121.

With RRIRMRPPRLPRPRPRPRHEPRP, the “shrunken log2 fold change” value was 0.532.

For the sequence RRIRYRPPRLPRPRPRPRASPRP, the “shrunken log2 fold change” value was -0.412.

With RRIRQRPPRLPRPRPRPKCYPRP, the “shrunken log2 fold change” value was -0.234.

On to RRIRPRPPRLPRPRPRPVSLPRP, for which the “shrunken log2 fold change” value is -0.104.

In the case of RRIRVRPPRLPRPRPRPKQPPRP, the “shrunken log2 fold change” value is 0.11.

Consider RRIRRRPPRLPRPRPRPHCHPRP, for which the “shrunken log2 fold change” value was -0.134.

For RRIRARPPRLPRPRPRPSIHPRP, the “shrunken log2 fold change” value was -0.233.

On to RRIRARPPRLPRPRPRPLSFPRP, for which the “shrunken log2 fold change” value is 0.0158.

As for RRIRPRPPRLPRPRPRPIMAPRP, the “shrunken log2 fold change” value was -0.0956.

Consider RRIRWRPPRLPRPRPRPNSYPRP, for which the “shrunken log2 fold change” value was -0.197.

RRIRGRPPRLPRPRPRPPPYPRP: the “shrunken log2 fold change” value is 0.611.

Turning to RRIRIRPPRLPRPRPRPYDVPRP, the “shrunken log2 fold change” value was -0.101.

For the sequence RRIRERPPRLPRPRPRPCWAPRP, the “shrunken log2 fold change” value was 0.00771.

With RRIRERPPRLPRPRPRPNRKPRP, the “shrunken log2 fold change” value is -0.0495.

Regarding RRIRSRPPRLPRPRPRPDVTPRP, the “shrunken log2 fold change” value is -0.0165.

For RRIRYRPPRLPRPRPRPTAKPRP, the “shrunken log2 fold change” value turned out to be 0.0338.

RRIRYRPPRLPRPRPRPTCWPRP: the “shrunken log2 fold change” value came out at 0.0987.

With RRIRMRPPRLPRPRPRPWSVPRP, the “shrunken log2 fold change” value is -0.0283.

Take RRIRIRPPRLPRPRPRPVAHPRP: the “shrunken log2 fold change” value came out at 0.0168.

On to RRIRERPPRLPRPRPRPWGMPRP, for which the “shrunken log2 fold change” value came to 0.115.

For the sequence RRIRMRPPRLPRPRPRPAHYPRP, the “shrunken log2 fold change” value is -0.248.

RRIRDRPPRLPRPRPRPMLSPRP: the “shrunken log2 fold change” value is 4.44e-05.

As for RRIRRRPPRLPRPRPRPVYIPRP, the “shrunken log2 fold change” value is -0.535.

Regarding RRIRIRPPRLPRPRPRPAPDPRP, the “shrunken log2 fold change” value came out at 0.248.

Turning to RRIRCRPPRLPRPRPRPGFHPRP, the “shrunken log2 fold change” value was -0.435.

With RRIRPRPPRLPRPRPRPCDSPRP, the “shrunken log2 fold change” value amounted to 0.301.

Take RRIRGRPPRLPRPRPRPCMHPRP: the “shrunken log2 fold change” value turned out to be 0.363.

RRIRYRPPRLPRPRPRPRLWPRP: the “shrunken log2 fold change” value came out at 0.14.

As for RRIRMRPPRLPRPRPRPIKGPRP, the “shrunken log2 fold change” value is -0.0612.

On to RRIRTRPPRLPRPRPRPGFMPRP, for which the “shrunken log2 fold change” value was -0.0526.

On to RRIRTRPPRLPRPRPRPTMRPRP, for which the “shrunken log2 fold change” value turned out to be 0.867.

For RRIRIRPPRLPRPRPRPPLRPRP, the “shrunken log2 fold change” value came out at 0.0855.

Turning to RRIRPRPPRLPRPRPRPAWMPRP, the “shrunken log2 fold change” value came out at 0.372.

RRIRLRPPRLPRPRPRPLPWPRP: the “shrunken log2 fold change” value came out at 0.334.

Regarding RRIRYRPPRLPRPRPRPRVPPRP, the “shrunken log2 fold change” value is -0.0432.

In the case of RRIRTRPPRLPRPRPRPKQDPRP, the “shrunken log2 fold change” value is 0.075.

RRIRMRPPRLPRPRPRPAEWPRP: the “shrunken log2 fold change” value was 0.375.

With RRIRARPPRLPRPRPRPPSDPRP, the “shrunken log2 fold change” value came to 0.705.

Turning to RRIRHRPPRLPRPRPRPSPFPRP, the “shrunken log2 fold change” value is -0.199.

For RRIRGRPPRLPRPRPRPLQKPRP, the “shrunken log2 fold change” value was 1.28.

As for RRIRGRPPRLPRPRPRPSLHPRP, the “shrunken log2 fold change” value is 0.316.

Take RRIRRRPPRLPRPRPRPHFCPRP: the “shrunken log2 fold change” value was determined as 0.00733.

Consider RRIRSRPPRLPRPRPRPGYVPRP, for which the “shrunken log2 fold change” value was -0.809.

In the case of RRIRHRPPRLPRPRPRPRFTPRP, the “shrunken log2 fold change” value amounted to 0.007.

For RRIRVRPPRLPRPRPRPLQLPRP, the “shrunken log2 fold change” value was -0.091.

With RRIRSRPPRLPRPRPRPFTIPRP, the “shrunken log2 fold change” value is -0.0987.

Take RRIRKRPPRLPRPRPRPGFMPRP: the “shrunken log2 fold change” value was 0.184.
